Measured values: patent US20090291081A1
Blank lines part the entries; values can stand above or below the binder they belong to.

How the values were obtained:
human IL-1α (human) = human IL-1α (human) (UniProt P01583); experiment: cell-based or functional assay
human IL-1β (human) = human IL-1β (human) (UniProt P01584); experiment: cell-based or functional assay
Chain of human IL-1β (human) (P01584 117-269 limits assumed): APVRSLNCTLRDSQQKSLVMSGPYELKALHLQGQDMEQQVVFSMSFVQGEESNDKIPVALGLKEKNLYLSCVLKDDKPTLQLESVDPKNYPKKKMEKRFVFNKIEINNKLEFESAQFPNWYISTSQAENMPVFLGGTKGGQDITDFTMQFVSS

Chain of human IL-1α (human) (P01583 113-271 limits assumed): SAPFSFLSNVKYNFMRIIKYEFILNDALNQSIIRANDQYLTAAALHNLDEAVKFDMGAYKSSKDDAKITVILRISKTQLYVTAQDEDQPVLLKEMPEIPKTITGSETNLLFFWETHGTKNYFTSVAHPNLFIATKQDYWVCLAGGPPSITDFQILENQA

B1: ABT1-207/ABT2-108-538x scFc (Fc fusion, part only; not given: Domain junction linker and Fc, not shown: a dimerising Fc or GST)
chain, part: EVQLLESGGGLIQPGGSLRLSCAASGFTFGRYYMSWVRQAPGKGLEWVSSIDYLGTNTYYADSVKGRFTISRDNSKNTLYLQMNSLRAEDTAVYYCAKLTRIRPPNFDYWGQGTLVTVSSEVQLLESGGGLVQPGGSLRLSCAASGFTFADEGMMWVRQAPGKGLEWVSRITYSGKNTYYADSVKGRFTISRDNSKNTLYLQMNSLRAEDTAVYYCAKYTGRILGHHLFDYWGQGTLVTVSSGGGGSGGGGSGGGGS
Estimated EC50, IL-1α neutralization (MRC-5) (human IL-1α (human)): 25 nM | Estimated EC50, IL-1β neutralization (MRC-5) (human IL-1β (human)): 1.1 nM

B4: ABT2-108-538x/ABT1-207 scFc (Fc fusion, part only; not given: Domain junction linker and Fc, not shown: a dimerising Fc or GST)
chain, part: EVQLLESGGGLVQPGGSLRLSCAASGFTFADEGMMWVRQAPGKGLEWVSRITYSGKNTYYADSVKGRFTISRDNSKNTLYLQMNSLRAEDTAVYYCAKYTGRILGHHLFDYWGQGTLVTVSSEVQLLESGGGLIQPGGSLRLSCAASGFTFGRYYMSWVRQAPGKGLEWVSSIDYLGTNTYYADSVKGRFTISRDNSKNTLYLQMNSLRAEDTAVYYCAKLTRIRPPNFDYWGQGTLVTVSSGGGGSGGGGSGGGGS
Estimated EC50, IL-1α neutralization (MRC-5) (human IL-1α (human)): 50 nM | Estimated EC50, IL-1β neutralization (MRC-5) (human IL-1β (human)): 0.002 nM

The remaining lines, values ahead:

Estimated EC50, IL-1α neutralization (MRC-5) (human IL-1α (human)): 3 nM | Estimated EC50, IL-1β neutralization (MRC-5) (human IL-1β (human)): < 0.001 nM
B2: ABT2-108-538x/ABT1-98 scFc (Fc fusion, part only; not given: Domain junction linker and Fc, not shown: a dimerising Fc or GST)
chain, part: EVQLLESGGGLVQPGGSLRLSCAASGFTFADEGMMWVRQAPGKGLEWVSRITYSGKNTYYADSVKGRFTISRDNSKNTLYLQMNSLRAEDTAVYYCAKYTGRILGHHLFDYWGQGTLVTVSSEVQLLESGGGLVQPGGSLRLSCAASGFTFDGYIMSWVRQAPGKGLEWVSTISPLGSVTYYADSVKGRFTISRDNSKNTLYLQMNSLRAEDTAVYYCAKKGPWFDYWGQGTLVTVSSGGGGSGGGGSGGGGS

Estimated EC50, IL-1α neutralization (MRC-5) (human IL-1α (human)): 30 nM | Estimated EC50, IL-1β neutralization (MRC-5) (human IL-1β (human)): 1.3 nM
B3: ABT1-98/ABT2-108-538x scFc (Fc fusion, part only; not given: Domain junction linker and Fc, not shown: a dimerising Fc or GST)
chain, part: EVQLLESGGGLVQPGGSLRLSCAASGFTFDGYIMSWVRQAPGKGLEWVSTISPLGSVTYYADSVKGRFTISRDNSKNTLYLQMNSLRAEDTAVYYCAKKGPWFDYWGQGTLVTVSSEVQLLESGGGLVQPGGSLRLSCAASGFTFADEGMMWVRQAPGKGLEWVSRITYSGKNTYYADSVKGRFTISRDNSKNTLYLQMNSLRAEDTAVYYCAKYTGRILGHHLFDYWGQGTLVTVSSGGGGSGGGGSGGGGS
